Test results taken from patent US20090208538A1.

Legend:
[1] = biological target: HLA-A*1501 (human); test: iTopia net score
[2] = biological target: HLA-A*1501 (human); test: iTopia affinity
[3] = biological target: HLA-A*0201 (human); test: iTopia net score
[4] = biological target: HLA-A*0201 (human); test: iTopia binding
[5] = biological target: HLA-A*0201 (human); test: iTopia affinity

Binder	iScore [1]	ED50 [2] [µM]	iScore [3]	binding vs positive control [4] [%]	ED50 [5] [µM]
LLRQMNEQH [cdr2 72-80 …]	0.106	68	–	–	–
QQLGATGAY [cdr2 235-243 …]	0.255	8.6	–	–	–
MLQSEHPFV (modifications not checked) [cdr2 260-268 …]	–	–	0.584	> 30	2

More lines, now with the values ahead:

iScore [1]	ED50 [2] [µM]	iScore [3]	binding vs positive control [4] [%]	ED50 [5] [µM]	Binder
0.065	110	–	–	–	RQKRVTMEE [cdr2 213-221 …]
0.098	45	–	–	–	YDLRQHFVY [cdr2 165-173 …]
0.09	42	–	–	–	LQQDLQLAA [cdr2 24-32 …]
0.075	170	–	–	–	MRQMLQSEH [cdr2 257-265 …]
0.072	45	–	–	–	PSFACLKEL [cdr2 156-164 …]
